Assay [1] concerns the target human CD40 on primary human tonsillar B cells (human, UniProt P25942 21-277). Kind of assay: cell-based or functional assay.
Assay [2] concerns the target T1, soluble human CD40 extracellular domain (human, UniProt P25942 21-193).
T1 construct: Produced in house; also called hCD40; soluble hCD40 extracellular domain
Kind of assay: SPR, purified Ab on protein A, 6 concentrations of hCD40 ECD, mean of 3. As for the experimental part: (§1) Additionally, to more accurately define the dissociation rate (kd), a longer dissociation time of 360 seconds (s) was used as opposed to the shorter 180 s dissociation that had been used in the supernatant screening experiment.
(§2) CD40 binding SPR: SPR studies of the purified antibodies were conducted on BIAcore™ T200 instrument (GE Healthcare, Chicago Ill.). A Series S Protein A sensor chip (GE Healthcare, Chicago Ill.) was equilibrated with SPR running buffer of 10 mM NaPO₄, 130 mM NaCl, 0.05% tween 20, (PBS-T) pH 7.2 at 25° C. The purified antibody samples were diluted to 3 μg/ml in PBS-T and captured on the protein A surface for 30 s at 10 μl/min Binding of 3.91, 7.81, 15.6, 31.3, 62.5, and 125 nM human CD40 extracellular domain (produced in house) was evaluated using association time of 180 s at 30 μl/min, followed by a dissociation time of 360 s at 30 μl/min Regeneration between cycles was accomplished using two 15 s injections of 10 mM glycine pH 1.5. […] Data were analyzed using BIAcore™ T200 evaluation software by fitting to a 1:1 Langmuir model.

The target of assay [3] is T1, soluble human CD40 extracellular domain. Kind of assay: SPR, purified Ab on protein A chip, soluble hCD40 ECD analyte, Fc2-1, n=3 global fit. As to the method:
as §2, with “A” for “CD40 binding SPR: SPR studies of the purified antibodies were conducted on BIAcore™ T200 instrument (GE Healthcare, Chicago Ill.). A”, “[…] After priming the system, the 3 μg/ml” for “The purified”, “were” for “were diluted to 3 μg/ml in PBS-T and”, “50 nM” for “3.91, 7.81, 15.6, 31.3, 62.5,”, “500” for “125”, “180” for “360”
In general terms: SPR reads the build-up and loss of mass on a sensor chip optically.

Assay [4] has the same target. Kind of assay: SPR, purified Ab on protein A chip, soluble hCD40 ECD analyte, Fc3-1, n=3 global fit.
Assay [5] has the same target. Kind of assay: SPR, purified Ab on protein A chip, soluble hCD40 ECD analyte, Fc4-1, n=3 global fit. As for the experimental part:
as §2, with “A” for “CD40 binding SPR: SPR studies of the purified antibodies were conducted on BIAcore™ T200 instrument (GE Healthcare, Chicago Ill.). A”, “[…] After priming the system, the 3 μg/ml” for “The purified”, “were” for “were diluted to 3 μg/ml in PBS-T and”, “50 nM” for “3.91, 7.81, 15.6, 31.3, 62.5,”, “500” for “125”, “180” for “360”

For assay [6] the target is unchanged. Kind of assay: SPR, Ab captured from supernatant on protein A, hCD40 ECD analyte; antibody captured out of supernatant. As for the experimental part: The titer data (Table 21) were used to normalize the antibody concentration in each supernatant to 3 μg/ml, and these antibodies were captured out of the supernatants on a protein A CMS Series S sensor chip (GE Healthcare), and tested for binding to two concentrations (5 nM and 50 nM) of soluble hCD40 extracellular domain.
CD40 binding SPR of antibody supernatants: Surface plasmon resonance (SPR) studies were conducted on a BIAcore™ T200 instrument (GE Healthcare, Chicago Ill.). A Series S Protein A sensor chip (GE Healthcare, Chicago Ill.) was equilibrated with SPR running buffer of 10 mM NaPO₄, 130 mM NaCl, 0.05% tween 20, (PBS-T) pH 7.2 at 25° C. The 96 antibody supernatants were normalized to a concentration of 3 μg/ml by diluting with PBS-T using a PerkinElmer JANUS® G3 system (PerkinElmer, Akron, Ohio). After priming the system, the 3 μg/ml antibody samples were captured on the protein A surface for 30 s at 10 μl/min Binding of 50 nM and 500 nM human CD40 extracellular domain (produced in house) was evaluated using association time of 180 s at 30 μl/min, followed by a dissociation time of 180 s at 30 μl/min Regeneration between cycles was accomplished using two 15 s injections of 10 mM glycine pH 1.5. […] Data were analyzed using BIAcore™ T200 evaluation software by fitting to a 1:1 Langmuir model.

For assay [7] the target is unchanged. Kind of assay: SPR, purified Ab on protein A, 6 concentrations of hCD40 ECD, mean of 3; purified antibody, mean of three measurements. As to the method:
as §1, §2

Assay [8] has the same target. Kind of assay: SPR, purified Ab on protein A, 6 concentrations of hCD40 ECD. As to the method: as §1, §2
The target is the same in assay [9]. Kind of assay: SPR, Ab captured from supernatant on protein A, hCD40 ECD analyte. An outline of the steps:
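Soluble human CD40 extracellular domain flowed at 50/500 nM (or 5/50 nM) over antibody held on protein A at 3 μg/ml, with 180 s on- and off-phases. Run in PBS-T pH 7.2 at 25 °C; kinetics from 1:1 Langmuir model.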

The target is the same in assay [10]. Kind of assay: SPR, antibody captured from supernatant on protein A chip, soluble hCD40 ECD at 5 and 50 nM (summary table of the 16 chosen antibodies).

The record followed here is patent publication US20230203177A1 (Bristol-Myers Squibb, published 2023).

For orientation: Kd means the equilibrium constant for the complex coming apart. High values mean a looser complex, low ones a tighter complex. A word on the koff: it is a measure of how fast the partners let go of each other. Read a high koff as fast dissociation. What is called kon is a measure of how fast the partners come together. Lower therefore signals slow association.

T1 sequence (P25942 21-193 limits assumed): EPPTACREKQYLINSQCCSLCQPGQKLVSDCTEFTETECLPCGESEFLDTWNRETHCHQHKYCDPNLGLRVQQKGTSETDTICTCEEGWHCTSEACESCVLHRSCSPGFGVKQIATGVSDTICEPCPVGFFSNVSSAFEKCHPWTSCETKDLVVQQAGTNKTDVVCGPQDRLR
human CD40 on primary human tonsillar B cells, sequence (P25942 21-277 limits assumed): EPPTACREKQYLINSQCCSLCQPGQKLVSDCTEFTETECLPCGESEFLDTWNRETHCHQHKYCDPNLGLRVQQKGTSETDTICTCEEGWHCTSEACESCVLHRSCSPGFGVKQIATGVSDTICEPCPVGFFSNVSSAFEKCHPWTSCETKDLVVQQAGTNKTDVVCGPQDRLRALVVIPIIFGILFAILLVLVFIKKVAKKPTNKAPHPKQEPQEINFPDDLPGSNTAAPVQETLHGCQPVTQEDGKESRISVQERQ

B1: BMS-986325 (antibody, human IgG1, kappa)
heavy: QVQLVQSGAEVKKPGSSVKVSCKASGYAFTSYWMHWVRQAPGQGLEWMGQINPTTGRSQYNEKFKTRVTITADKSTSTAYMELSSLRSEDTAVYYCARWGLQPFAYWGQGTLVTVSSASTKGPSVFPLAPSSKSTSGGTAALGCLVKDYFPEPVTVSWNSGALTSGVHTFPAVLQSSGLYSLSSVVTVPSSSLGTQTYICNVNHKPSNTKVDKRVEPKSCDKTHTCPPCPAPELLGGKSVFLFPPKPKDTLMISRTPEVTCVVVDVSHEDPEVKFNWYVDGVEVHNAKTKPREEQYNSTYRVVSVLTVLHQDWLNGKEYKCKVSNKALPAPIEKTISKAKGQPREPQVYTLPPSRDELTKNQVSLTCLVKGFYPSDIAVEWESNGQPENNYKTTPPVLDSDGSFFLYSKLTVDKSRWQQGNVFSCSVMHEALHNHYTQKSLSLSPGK
light: DIQMTQSPSFLSASVGDRVTITCKASQDVSTAVAWYQQKPGKAPKLLIYSASYRYTGVPSRFSGSGSGTDFTLTISSLQPEDFATYYCQQHYSTPWTFGGGTKVEIKRTVAAPSVFIFPPSDEQLKSGTASVVCLLNNFYPREAKVQWKVDNALQSGNSQESVTEQDSKDSTYSLSSTLTLSKADYEKHKVYACEVTHQGLSSPVTKSFNRGEC
notes: IgG1-P238K; purified lots and supernatant M1 treated as one molecule; also called M1 (wt); Y12XX-hz28
As to B1, in assay [1], the “IC50, inhibition of tonsillar human B cell proliferation stimulated by IZ-hCD40L trimer (BMS-986325-WT P1-071223-1 lot 1)” value was 0.0012 µg/mL; the “IC50, inhibition of tonsillar human B cell proliferation stimulated by IZ-hCD40L trimer (BMS-986325-WT P1-071223-3 lot 3)” value worked out at 0.0056 µg/mL; the “IC50, inhibition of tonsillar human B cell proliferation stimulated by IZ-hCD40L trimer (BMS-986325 P1-073346-1)” value is 0.0014 µg/mL; the “IC50, inhibition of tonsillar human B cell proliferation stimulated by hCD40L expressing CHO cells (BMS-986325-WT P1-071223-1 lot 1)” value worked out at 0.042 µg/mL. Also, in assay [1], the “IC50, inhibition of tonsillar human B cell proliferation stimulated by hCD40L expressing CHO cells (BMS-986325-WT P1-071223-3 lot 3)” value was 0.0314 µg/mL and the “IC50, inhibition of tonsillar human B cell proliferation stimulated by hCD40L expressing CHO cells (BMS-986325 P1-073346-1)” value came out at 0.047 µg/mL. In assay [2], the dissociation constant (Kd) was 3.1 nM and the koff stood at 0.00066 s⁻¹. Further, in [3], the Kd is 4.4 nM, the koff was found to be 0.00087 s⁻¹ and the kon was found to be 200000 M⁻¹ s⁻¹. In [4], this molecule gave a dissociation constant (Kd) of 4.5 nM, a koff of 0.00091 s⁻¹ and a kon of 200000 M⁻¹ s⁻¹. In [5], this molecule gave a Kd of 4.4 nM, a koff of 0.00091 s⁻¹ and a kon of 210000 M⁻¹ s⁻¹. In assay [6], this molecule came in with a Kd of 4.2 nM. The same molecule came in with a kon in assay [7] of 220000 M⁻¹ s⁻¹.

B2: M81 (HC-wt / LC-K107Q,R108Q) (antibody, human IgG1, kappa)
heavy: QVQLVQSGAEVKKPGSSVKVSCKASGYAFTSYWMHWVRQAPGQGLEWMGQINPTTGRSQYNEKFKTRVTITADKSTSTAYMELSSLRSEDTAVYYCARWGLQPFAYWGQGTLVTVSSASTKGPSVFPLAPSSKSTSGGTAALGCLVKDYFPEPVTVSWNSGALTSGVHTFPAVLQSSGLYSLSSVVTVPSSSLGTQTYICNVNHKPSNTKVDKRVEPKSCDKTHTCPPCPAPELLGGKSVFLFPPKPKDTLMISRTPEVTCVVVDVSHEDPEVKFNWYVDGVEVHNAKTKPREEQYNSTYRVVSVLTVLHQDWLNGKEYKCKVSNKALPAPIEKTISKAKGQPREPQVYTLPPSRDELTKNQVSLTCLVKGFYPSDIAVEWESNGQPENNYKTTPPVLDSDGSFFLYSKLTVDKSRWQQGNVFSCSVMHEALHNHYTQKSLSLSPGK
light: DIQMTQSPSFLSASVGDRVTITCKASQDVSTAVAWYQQKPGKAPKLLIYSASYRYTGVPSRFSGSGSGTDFTLTISSLQPEDFATYYCQQHYSTPWTFGGGTKVEIQQTVAAPSVFIFPPSDEQLKSGTASVVCLLNNFYPREAKVQWKVDNALQSGNSQESVTEQDSKDSTYSLSSTLTLSKADYEKHKVYACEVTHQGLSSPVTKSFNRGEC
notes: IgG1-P238K; also called HC1/LC6
For the molecule B2, in assay [1], the “IC50, inhibition of tonsillar human B cell proliferation stimulated by IZ-hCD40L trimer” value was found to be 0.0007 µg/mL and the “IC50, inhibition of tonsillar human B cell proliferation stimulated by hCD40L expressing CHO cells” value was 0.0257 µg/mL. In [8], the Kd amounted to 3 nM, the koff stood at 0.0007 s⁻¹ and the kon amounted to 240000 M⁻¹ s⁻¹. Also, in assay [9], the Kd came to 4.1 nM. In [10], the Kd was determined as 4.1 nM.
